# Experimental data as given in patent US20180155451A1 (published 2018).
# T1: FcγRIIa R (extracellular domain, C-terminal His tag) (human, UniProt P12318 34-217)
# T1 construct: extracellular domain; also called FcgRIIa R type; 2aR; not shown: His tag attached to the C terminus
# T1 sequence (looked up): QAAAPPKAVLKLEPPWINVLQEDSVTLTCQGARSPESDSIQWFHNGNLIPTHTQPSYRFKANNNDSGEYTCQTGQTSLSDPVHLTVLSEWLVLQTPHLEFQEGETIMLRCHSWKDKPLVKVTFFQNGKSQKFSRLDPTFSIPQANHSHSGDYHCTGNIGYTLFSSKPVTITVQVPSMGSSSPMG
# T2: FcγRIIb (extracellular domain, C-terminal His tag) (human, UniProt P31994 43-217)
# T2 construct: extracellular domain; also called FcgRIIb; 2b; not shown: His tag attached to the C terminus
# T2 sequence (looked up): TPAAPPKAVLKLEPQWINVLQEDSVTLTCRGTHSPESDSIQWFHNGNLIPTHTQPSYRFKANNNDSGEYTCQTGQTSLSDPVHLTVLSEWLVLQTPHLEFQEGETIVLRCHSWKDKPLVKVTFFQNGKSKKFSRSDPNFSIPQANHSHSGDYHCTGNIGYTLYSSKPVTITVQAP
# T3: FcγRIIb extracellular domain with C-terminal His tag (human, UniProt P31994 43-217)
# T3 construct: extracellular domain; Expressed in FreeStyle293 cells; used as analyte in Biacore; also called FcgRIIb; 2b; not shown: C-terminal His tag
# T3 sequence (looked up): T2 sequence (looked up)
# B1: GpH7-A5/GpH7-B3 variant S337_02A/GpL16-k0 (antibody, human IgG1, kappa)
# heavy 1: not shown
# heavy 2: not shown
# light: DIVMTQSPLSLPVTPGEPASISCQASESLVHSNRNTYLHWYLQKPGQSPQLLIYKVSNRFSGVPDRFSGSGSGTDFTLKISRVEAEDVGVYYCSQNTHVPPTFGQGTKVEIERTVAAPSVFIFPPSDEQLKSGTASVVCLLNNFYPREAKVQWKVDNALQSGNSQESVTEQDSKDSTYSLSSTLTLSKADYEKHKVYACEVTHQGLSSPVTKSFNRGEC
# notes: Heterodimerized anti-glypican-3 IgG1; alteration in only one H chain (GpH7-B3 side); also called He Ab
# B2: GpH7-A5/GpH7-B3 variant S337_03V/GpL16-k0 (antibody, human IgG1, kappa)
# heavy 1: not shown
# heavy 2: not shown
# light: B1 light
# notes: as for B1
# B3: GpH7-A5/GpH7-B3 variant E333_15Y/GpL16-k0 (antibody, human IgG1, kappa)
# heavy 1: not shown
# heavy 2: not shown
# light: B1 light
# notes: as for B1
# B4: GpH7-A5/GpH7-B3 variant T335_02A/GpL16-k0 (antibody, human IgG1, kappa)
# heavy 1: not shown
# heavy 2: not shown
# light: B1 light
# notes: as for B1
# B5: GpH7-A5/GpH7-B3 variant S337_04F/GpL16-k0 (antibody, human IgG1, kappa)
# heavy 1: not shown
# heavy 2: not shown
# light: B1 light
# notes: as for B1
# B6: GpH7-A5/GpH7-B3 variant S337_06M/GpL16-k0 (antibody, human IgG1, kappa)
# heavy 1: not shown
# heavy 2: not shown
# light: B1 light
# notes: as for B1
# B7: GpH7-A5/GpH7-B3 variant E333_07I/GpL16-k0 (antibody, human IgG1, kappa)
# heavy 1: not shown
# heavy 2: not shown
# light: B1 light
# notes: as for B1
# B8: GpH7-A5/GpH7-B3 variant I336_18N/GpL16-k0 (antibody, human IgG1, kappa)
# heavy 1: not shown
# heavy 2: not shown
# light: B1 light
# notes: as for B1
# B9: GpH7-A5/GpH7-B3 variant S337_12R/GpL16-k0 (antibody, human IgG1, kappa)
# heavy 1: not shown
# heavy 2: not shown
# light: B1 light
# notes: as for B1
# B10: GpH7-A5/GpH7-B3 variant T335_12R/GpL16-k0 (antibody, human IgG1, kappa)
# heavy 1: not shown
# heavy 2: not shown
# light: B1 light
# notes: as for B1
# B11: GpH7-A5/GpH7-B3 variant E333_08L/GpL16-k0 (antibody, human IgG1, kappa)
# heavy 1: not shown
# heavy 2: not shown
# light: B1 light
# notes: as for B1
# B12: GpH7-A5/GpH7-B3 variant S337_11K/GpL16-k0 (antibody, human IgG1, kappa)
# heavy 1: not shown
# heavy 2: not shown
# light: B1 light
# notes: as for B1
# B13: GpH7-A5/GpH7-B3 variant T335_05P/GpL16-k0 (antibody, human IgG1, kappa)
# heavy 1: not shown
# heavy 2: not shown
# light: B1 light
# notes: as for B1
# B14: GpH7-A5/GpH7-B3 variant S337_19Q/GpL16-k0 (antibody, human IgG1, kappa)
# heavy 1: not shown
# heavy 2: not shown
# light: B1 light
# notes: as for B1
# B15: GpH7-A5/GpH7-B3 variant T335_01G/GpL16-k0 (antibody, human IgG1, kappa)
# heavy 1: not shown
# heavy 2: not shown
# light: B1 light
# notes: as for B1
# B16: GpH7-A5/GpH7-B3 variant T335_06M/GpL16-k0 (antibody, human IgG1, kappa)
# heavy 1: not shown
# heavy 2: not shown
# light: B1 light
# notes: as for B1
# B17: GpH7-A5/GpH7-B3 variant E333_09D/GpL16-k0 (antibody, human IgG1, kappa)
# heavy 1: not shown
# heavy 2: not shown
# light: B1 light
# notes: as for B1
# B18: GpH7-A5/GpH7-B3 variant S267_09D/GpL16-k0 (He Ab) (antibody, human IgG1, kappa)
# heavy 1: not shown
# heavy 2: not shown
# light: B1 light
# notes: Substitution in one H chain only; position in EU numbering; also called S267D heterodimerized antibody
# B19: GpH7-A5/GpH7-B3 variant S298_08L/GpL16-k0 (He Ab) (antibody, human IgG1, kappa)
# heavy 1: not shown
# heavy 2: not shown
# light: B1 light
# notes: Substitution in one H chain only; position in EU numbering; also called S298L heterodimerized antibody
# B20: GpH7-A5/GpH7-B3 variant Y300_19Q/GpL16-k0 (He Ab) (antibody, human IgG1, kappa)
# heavy 1: not shown
# heavy 2: not shown
# light: B1 light
# notes: Substitution in one H chain only; position in EU numbering; also called Y300Q heterodimerized antibody
# Target: T1, FcγRIIa R (extracellular domain, …)
# Assay: SPR (Biacore), antibody captured on antigen-peptide chip, FcγR as analyte; relative binding amount
# Experimental: (§1) The heterodimerized antibodies He Abs in which one of the H chains was introduced with an alteration were assayed for their binding activities to each activating FcγR and inhibitory FcγR according to the method described in Example 4. […] The activating FcγRs in FIGS. 26, 27, 28, and 29 are FcγRIa, FcγRIIa (R), FcγRIIa (H), and FcγRIIIa, respectively.
# (§2) Analysis of interaction between objective antibody and the FcγR was carried out using Biacore T100 (GE Healthcare). HBS-EP+ (GE Healthcare) was used as the running buffer, and the measurement temperature was set to 25° C. Chips produced by immobilizing the antigen peptide by the amine coupling method to a Series S Sencor Chip CM5 (GE Healthcare), or alternatively, chips produced by allowing preliminarily biotinylated antigen peptides to interact with and immobilize onto a Series S Sensor Chip SA (certified) (GE Healthcare) were used. Antibodies of interest were captured onto an antigen peptide-immobilized chip, and allowed to interact to each FcγR diluted with running buffer. To regenerate and repeatedly use the chip, the antibodies captured on the chip were washed off by reacting 10 mM glycine-HCl, pH 1.5.
row,He/Con_2aR,Binder
1,105 % of control (GpH7-A5/GpH7-B3/GpL16-k0 = 100),B1
2,106 % of control (GpH7-A5/GpH7-B3/GpL16-k0 = 100),B2
3,101 % of control (GpH7-A5/GpH7-B3/GpL16-k0 = 100),B3
4,102 % of control (GpH7-A5/GpH7-B3/GpL16-k0 = 100),B4
5,105 % of control (GpH7-A5/GpH7-B3/GpL16-k0 = 100),B5
6,105 % of control (GpH7-A5/GpH7-B3/GpL16-k0 = 100),B6
7,104 % of control (GpH7-A5/GpH7-B3/GpL16-k0 = 100),B7
8,104 % of control (GpH7-A5/GpH7-B3/GpL16-k0 = 100),B8
9,107 % of control (GpH7-A5/GpH7-B3/GpL16-k0 = 100),B9
10,100 % of control (GpH7-A5/GpH7-B3/GpL16-k0 = 100),B10
11,103 % of control (GpH7-A5/GpH7-B3/GpL16-k0 = 100),B11
12,103 % of control (GpH7-A5/GpH7-B3/GpL16-k0 = 100),B12
13,104 % of control (GpH7-A5/GpH7-B3/GpL16-k0 = 100),B13
14,106 % of control (GpH7-A5/GpH7-B3/GpL16-k0 = 100),B14
15,104 % of control (GpH7-A5/GpH7-B3/GpL16-k0 = 100),B15
16,105 % of control (GpH7-A5/GpH7-B3/GpL16-k0 = 100),B16
17,103 % of control (GpH7-A5/GpH7-B3/GpL16-k0 = 100),B17

# Target: T2, FcγRIIb (extracellular domain, …)
# Assay: as above
# Experimental: as §1, §2
row,He/Con_2b,Binder
1,97.2 % of control (GpH7-A5/GpH7-B3/GpL16-k0 = 100),B1
2,98.9 % of control (GpH7-A5/GpH7-B3/GpL16-k0 = 100),B2
3,94.4 % of control (GpH7-A5/GpH7-B3/GpL16-k0 = 100),B3
4,94 % of control (GpH7-A5/GpH7-B3/GpL16-k0 = 100),B4
5,97.8 % of control (GpH7-A5/GpH7-B3/GpL16-k0 = 100),B5
6,96.7 % of control (GpH7-A5/GpH7-B3/GpL16-k0 = 100),B6
7,96.2 % of control (GpH7-A5/GpH7-B3/GpL16-k0 = 100),B7
8,97.6 % of control (GpH7-A5/GpH7-B3/GpL16-k0 = 100),B8
9,99.5 % of control (GpH7-A5/GpH7-B3/GpL16-k0 = 100),B9
10,91.9 % of control (GpH7-A5/GpH7-B3/GpL16-k0 = 100),B10
11,95 % of control (GpH7-A5/GpH7-B3/GpL16-k0 = 100),B11
12,94.3 % of control (GpH7-A5/GpH7-B3/GpL16-k0 = 100),B12
13,99.9 % of control (GpH7-A5/GpH7-B3/GpL16-k0 = 100),B13
14,99.7 % of control (GpH7-A5/GpH7-B3/GpL16-k0 = 100),B14
15,96.7 % of control (GpH7-A5/GpH7-B3/GpL16-k0 = 100),B15
16,99.4 % of control (GpH7-A5/GpH7-B3/GpL16-k0 = 100),B16
17,94.3 % of control (GpH7-A5/GpH7-B3/GpL16-k0 = 100),B17

# Target: T3, FcγRIIb extracellular domain with …
# Assay: SPR (Biacore), antibody captured on antigen-peptide chip, FcgRIIb as analyte; binding relative to GpH7-A5/GpH7-B3/GpL16-k0 (HeCon Ab) = 100
row,He/Con_2b,Binder
1,310 % of control,B18
2,108 % of control,B19
3,108 % of control,B20
